# Laboratory results as given in the supplement of paper PMC11246515.
# ± gives the standard deviation of the averaged measurements.
# Experiment: total protein half-life in vivo (active degradation + dilution); higher = more stable protein
# [1] = E. coli NCM3722 delta-clpP delta-lon delta-hslV, growth: N-lim chemostat, doubling time 6 h
# [2] = E. coli NCM3722 delta-clpP, growth: N-lim chemostat, doubling time 6 h
# [3] = E. coli NCM3722 delta-hslV, growth: N-lim chemostat, doubling time 6 h
# [4] = E. coli NCM3722 delta-lon, growth: N-lim chemostat, doubling time 6 h
# [5] = E. coli NCM3722 delta-smpB, growth: N-lim chemostat, doubling time 6 h
# [6] = wild type E. coli NCM3722, growth: C-lim chemostat, doubling time 3 h
# [7] = wild type E. coli NCM3722, growth: C-lim chemostat, doubling time 6 h
# [8] = wild type E. coli NCM3722, growth: C-lim chemostat, doubling time 12 h
# [9] = wild type E. coli NCM3722, growth: N-lim chemostat, doubling time 6 h
# [10] = wild type E. coli NCM3722, growth: N-lim chemostat, doubling time 12 h
# [11] = wild type E. coli NCM3722, growth: P-lim chemostat, doubling time 6 h
# [12] = wild type E. coli NCM3722, growth: P-lim chemostat, doubling time 12 h
Sequence,total protein half-life in vivo [1] [h],total protein half-life in vivo [2] [h],total protein half-life in vivo [3] [h],total protein half-life in vivo [4] [h],total protein half-life in vivo [5] [h],total protein half-life in vivo [6] [h],total protein half-life in vivo [7] [h],total protein half-life in vivo [8] [h],total protein half-life in vivo [9] [h],total protein half-life in vivo [10] [h],total protein half-life in vivo [11] [h],total protein half-life in vivo [12] [h]
MKVMRTTVATVVAATLSMSAFSVFAEASLTGAGATFPAPVYAKWADTYQKETGNKVNYQGIGSSGGVKQIIANTVDFGASDAPLSDEKLAQEGLFQFPTVIGGVVLAVNIPGLKSGELVLDGKTLGDIYLGKIKKWDDEAIAKLNPGLKLPSQNIAVVRRADGSGTSFVFTSYLAKVNEEWKNNVGTGSTVKWPIGLGGKGNDGIAAFVQRLPGAIGYVEYAYAKQNNLAYTKLISADGKPVSPTEENFANAAKGADWSKTFAQDLTNQKGEDAWPITSTTFILIHKDQKKPEQGTEVLKFFDWAYKTGAKQANDLDYASLPDSVVEQVRAAWKTNIKDSSGKPLY [P0AG82],4.1 ± 0.22,5.18 ± 0.54,6.12 ± 0.3,6.31 ± 0.76,6.08 ± 0.12,3.42 ± 0.057,6.04 ± 0.31,11.7 ± 0.42,6.11 ± 0.43,12.9 ± 0.66,5.67 ± 0.093,11.5 ± 0.23
MKLTTHHLRTGAALLLAGILLAGCDQSSSDAKHIKVGVINGAEQDVAEVAKKVAKEKYGLDVELVGFSGSLLPNDATNHGELDANVFQHRPFLEQDNQAHGYKLVAVGNTFVFPMAGYSKKIKTVAQIKEGATVAIPNDPTNLGRALLLLQKEKLITLKEGKGLLPTALDITDNPRHLQIMELEGAQLPRVLDDPKVDVAIISTTYIQQTGLSPVHDSVFIEDKNSPYVNILVAREDNKNAENVKEFLQSYQSPEVAKAAETIFNGGAVPGW,5.58 ± 0.19,6.82 ± 1.4,,6.47 ± 0.86,6.67 ± 0.91,2.86 ± 0.047,5.49 ± 0.059,10.7 ± 1.3,5.44 ± 0.46,12.6 ± 2.8,5.38 ± 0.23,10.6 ± 0.015
MSNFINIHVLISHSPSCLNRDDMNMQKDAIFGGKRRVRISSQSLKRAMRKSGYYAQNIGESSLRTIHLAQLRDVLRQKLGERFDQKIIDKTLALLSGKSVDEAEKISADAVTPWVVGEIAWFCEQVAKAEADNLDDKKLLKVLKEDIAAIRVNLQQGVDIALSGRMATSGMMTELGKVDGAMSIAHAITTHQVDSDIDWFTAVDDLQEQGSAHLGTQEFSSGVFYRYANINLAQLQENLGGASREQALEIATHVVHMLATEVPGAKQRTYAAFNPADMVMVNFSDMPLSMANAFEKAVKAKDGFLQPSIQAFNQYWDRVANGYGLNGAAAQFSLSDVDPITAQVKQMPTLEQLKSWVRNNGEA,6.17 ± 0.55,2.77,,2.71,,2.13,4.22,,,,5.28,11.4 ± 1.2
MQSLTTALENLLRHLSQEIPATPGIRVIDIPFPLKDAFDALSWLASQQTYPQFYWQQRNGDEEAVVLGAITRFTSLDQAQRFLRQHPEHADLRIWGLNAFDPSQGNLLLPRLEWRRCGGKATLRLTLFSESSLQHDAIQAKEFIATLVSIKPLPGLHLTTTREQHWPDKTGWTQLIELATKTIAEGELDKVVLARATDLHFASPVNAAAMMAASRRLNLNCYHFYMAFDGENAFLGSSPERLWRRRDKALRTEALAGTVANNPDDKQAQQLGEWLMADDKNQRENMLVVEDICQRLQADTQTLDVLPPQVLRLRKVQHLRRCIWTSLNKADDVICLHQLQPTAAVAGLPRDLARQFIARHEPFTREWYAGSAGYLSLQQSEFCVSLRSAKISGNVVRLYAGAGIVRGSDPEQEWQEIDNKAAGLRTLLQME,4.68 ± 0.47,> 8,3.92 ± 0.49,4.47 ± 0.15,3.94 ± 0.32,2.96 ± 0.1,4.82 ± 0.16,10.2 ± 0.62,3.92 ± 0.21,6.68 ± 0.27,5.06 ± 0.77,11.1 ± 0.5
MNNMNVIIADDHPIVLFGIRKSLEQIEWVNVVGEFEDSTALINNLPKLDAHVLITDLSMPGDKYGDGITLIKYIKRHFPSLSIIVLTMNNNPAILSAVLDLDIEGIVLKQGAPTDLPKALAALQKGKKFTPESVSRLLEKISAGGYGDKRLSPKESEVLRLFAEGFLVTEIAKKLNRSIKTISSQKKSAMMKLGVENDIALLNYLSSVTLSPADKD [P0DMC7],5.91 ± 1.9,4.22 ± 1.2,2.69 ± 0.2,3.758 ± 0.014,2.9 ± 0.3,2.71 ± 0.096,4.35 ± 0.097,6.66 ± 1.3,3.01 ± 0.38,4.16 ± 0.46,3.42 ± 0.59,5.56 ± 0.093
MNINRDKIVQLVDTDTIENLTSALSQRLIADQLRLTTAESCTGGKLASALCAAEDTPKFYGAGFVTFTDQAKMKILSVSQQSLERYSAVSEKVAAEMATGAIERADADVSIAITGYGGPEGGEDGTPAGTVWFAWHIKGQNYTAVMHFAGDCETVLALAVRFALAQLLQLLL,4.97 ± 0.3,4.57 ± 0.048,4.76 ± 0.46,5.18 ± 0.69,4.38 ± 0.19,3.14 ± 0.69,6.15 ± 0.4,9.68,4.8 ± 0.062,11.1 ± 3.5,5.68 ± 0.57,12.6 ± 0.67
MKIVIAPDSFKESLSAEKCCQAIKAGFSTLFPDANYICLPIADGGEGTVDAMVAATGGNIVTLEVCGPMGEKVNAFYGLTGDGKTAVIEMAAASGLMLVAPEKRNPLLASSFGTGELIRHALDNDIRHIILGIGGSATVDGGMGMAQALGVRFLDADGQALAANGGNLARVASIEMDECDPRLANCHIEVACDVDNPLVGARGAAAVFGPQKGATPEMVEELEQGLQNYARVLQQQTEINVCQMAGGGAAGGMGIAAAVFLNADIKPGIEIVLNAVNLAQAVQGAALVITGEGRIDSQTAGGKAPLGVASVAKQFNVPVIGIAGVLGDGVEVVHQYGIDAVFSILPRLAPLAEVLASGETNLFNSARNIACAIKIGQGIKN,4.41 ± 0.66,4.58 ± 0.6,4.47 ± 0.077,4.62 ± 0.21,4.3 ± 0.45,3.05 ± 0.13,4.82 ± 0.53,10.4 ± 1.2,5.7 ± 1.2,8.201 ± 0.034,5.05 ± 0.15,9.23 ± 0.27
MSLPHLSLADARNLHLAAQGLLNKPRRRASLEDIPATISRMSLLQIDTINIVARSPYLVLFSRLGNYPAQWLDESLARGELMEYWAHEACFMPRSDFRLIRHRMLAPEKMGWKYKDAWMQEHEAEIAQLIQHIHDKGPVRSADFEHPRKGASGWWEWKPHKRHLEGLFTAGKVMVIERRNFQRVYDLTHRVMPDWDDERDLVSQTEAEIIMLDNSARSLGIFREQWLADYYRLKRPALAAWREARAEQQQIIAVHVEKLGNLWLHDDLLPLLERALAGKLTATHSAVLSPFDPVVWDRKRAEQLFDFSYRLECYTPAPKRQYGYFVLPLLHRGQLVGRMDAKMHRQTGILEVISLWLQEGIKPTTTLQKGLRQAITDFANWQQATRVTLGCCPQGLFTDCRTGWEIDPVA,6.77,,,,,,,,,,,
MANPTVIKLQDGNVMPQLGLGVWQASNEEVITAIQKALEVGYRSIDTAAAYKNEEGVGKALKNASVNREELFITTKLWNDDHKRPREALLDSLKKLQLDYIDLYLMHWPVPAIDHYVEAWKGMIELQKEGLIKSIGVCNFQIHHLQRLIDETGVTPVINQIELHPLMQQRQLHAWNATHKIQTESWSPLAQGGKGVFDQKVIRDLADKYGKTPAQIVIRWHLDSGLVVIPKSVTPSRIAENFDVWDFRLDKDELGEIAKLDQGKRLGPDPDQFGG,5.16 ± 0.27,5.3 ± 0.9,5.36 ± 0.068,5.7 ± 0.23,5.17 ± 0.29,3.7 ± 0.23,6.23 ± 0.55,11.8 ± 1.7,4.8 ± 0.42,8.91 ± 0.27,5.85 ± 0.2,13.3 ± 2.8
MSIDWNWGIFLQQAPFGNTTYLGWIWSGFQVTIALSICAWIIAFLVGSFFGILRTVPNRFLSGLGTLYVELFRNVPLIVQFFTWYLVIPELLPEKIGMWFKAELDPNIQFFLSSMLCLGLFTAARVCEQVRAAIQSLPRGQKNAALAMGLTLPQAYRYVLLPNAYRVIVPPMTSEMMNLVKNSAIASTIGLVDMAAQAGKLLDYSAHAWESFTAITLAYVLINAFIMLVMTLVERKVRLPGNMGGK [P0AER3],6.3 ± 0.68,5.73 ± 0.57,7.02 ± 1.3,6.414 ± 0.029,5.64 ± 0.34,3.1 ± 0.078,5.71 ± 1.4,12.4,5.35 ± 0.4,12.1 ± 4.6,6.73,12.4 ± 1.9
MSLLAQLDQKIAANGGLIVSCQPVPDSPLDKPEIVAAMALAAEQAGAVAIRIEGVANLQATRAVVSVPIIGIVKRDLEDSPVRITAYIEDVDALAQAGADIIAIDGTDRPRPVPVETLLARIHHHGLLAMTDCSTPEDGLACQKLGAEIIGTTLSGYTTPETPEEPDLALVKTLSDAGCRVIAEGRYNTPAQAADAMRHGAWAVTVGSAITRLEHICQWYNTAMKKAVL [P0A761],,5.64,3.95,4.21 ± 0.027,4.27,2.9 ± 0.27,5.06 ± 0.56,10.3 ± 1.4,4.14 ± 0.36,7.56,5.84 ± 1,9.47 ± 0.41
MDLRDLKTFLHLAESRHFGRSARAMHVSPSTLSRQIQRLEEDLGQPLFVRDNRTVTLTEAGEELRVFAQQTLLQYQQLRHTIDQQGPSLSGELHIFCSVTAAYSHLPPILDRFRAEHPSVEIKLTTGDAADAMEKVVTGEADLAIAGKPETLPGAVAFSMLENLAVVLIAPALPCPVRNQVSVEKPDWSTVPFIMADQGPVRRRIELWFRRNKISNPMIYATVGGHEAMVSMVALGCGVALLPEVVLENSPEPVRNRVMILERSDEKTPFELGVCAQKKRLHEPLIEAFWKILPNHK,6.95 ± 1.4,6.14 ± 0.2,5.87 ± 0.32,6.22 ± 0.23,6.35 ± 1.1,2.78 ± 0.13,5.47 ± 0.66,11.4 ± 3.2,5.9 ± 0.012,10.9 ± 1.1,5.48 ± 0.1,11 ± 0.99
MTPLRVFRKTTPLVNTIRLSLLPLAGLSFSAFAAQVNIAPGSLDKALNQYAAHSGFTLSVDASLTRGKQSNGLHGDYDVESGLQQLLDGSGLQVKPLGNNSWTLEPAPAPKEDALTVVGDWLGDARENDVFEHAGARDVIRREDFAKTGATTMREVLNRIPGVSAPENNGTGSHDLAMNFGIRGLNPRLASRSTVLMDGIPVPFAPYGQPQLSLAPVSLGNMDAIDVVRGGGAVRYGPQSVGGVVNFVTRAIPQDFGIEAGVEGQLSPTSSQNNPKETHNLMVGGTADNGFGTALLYSGTRGSDWREHSATRIDDLMLKSKYAPDEVHTFNSLLQYYDGEADMPGGLSRADYDADRWQSTRPYDRFWGRRKLASLGYQFQPDSQHKFNIQGFYTQTLRSGYLEQGKRITLSPRNYWVRGIEPRYSQIFMIGPSAHEVGVGYRYLNESTHEMRYYTATSSGQLPSGSSPYDRDTRSGTEAHAWYLDDKIDIGNWTITPGMRFEHIESYQNNAITGTHEEVSYNAPLPALNVLYHLTDSWNLYANTEGSFGTVQYSQIGKAVQSGNVEPEKARTWELGTRYDDGALTAEMGLFLINFNNQYDSNQTNDTVTARGKTRHTGLETQARYDLGTLTPTLDNVSIYASYAYVNAEIREKGDTYGNLVPFSPKHKGTLGVDYKPGNWTFNLNSDFQSSQFADNANTVKESADGSTGRIPGFMLWGARVAYDFGPQMADLNLAFGVKNIFDQDYFIRSYDDNNKGIYAGQPRTLYMQGSLKF,,6.44 ± 0.23,,6.48,> 8,3.66,,,5.3 ± 0.92,> 16,,
MKINQPAVAGTLESGDVMIRIAPLDTQDIDLQINSSVEKQFGDAIRTTILDVLARYNVRGVQLNVDDKGALDCILRARLEALLARASGIPALPWEDCQ,,,,,1.09,,,,,,,
MHINIAWQDVDTVLLDMDGTLLDLAFDNYFWQKLVPETWGAKNGVTPQEAMEYMRQQYHDVQHTLNWYCLDYWSEQLGLDICAMTTEMGPRAVLREDTIPFLEALKASGKQRILLTNAHPHNLAVKLEHTGLDAHLDLLLSTHTFGYPKEDQRLWHAVAEATGLKAERTLFIDDSEAILDAAAQFGIRYCLGVTNPDSGIAEKQYQRHPSLNDYRRLIPSLM,4.35 ± 0.11,,,2.37 ± 2.1,,0.973 ± 0.063,0.971,,,,0.56,0.544
MLHTANPVIKHKAGLLNLAEELSNVSKACKIMGVSRDTFYRYRELVAEGGVDAQINRSRRAPNLKNRTDEATEQAVVDYAVAFPTHGQHRASNELRKQGVFISDSGVRSVWLLHNLENLKRRY,5.09 ± 0.95,,,,,,,,,,,
